Test results published in US20110268733A1 (Daiichi Sankyo, published 2011).

T1: human Siglec-15 V-set domain (human, UniProt Q6ZMC9 39-165)
T1 construct: The His tag was cleaved with thrombin before use; also called human V-set domain
T1 sequence: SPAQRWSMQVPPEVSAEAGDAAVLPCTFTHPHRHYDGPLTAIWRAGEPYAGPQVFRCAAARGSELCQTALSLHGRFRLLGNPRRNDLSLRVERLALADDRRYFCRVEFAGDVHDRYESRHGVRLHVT


Key:
[1] = biological target: T1, human Siglec-15 V-set domain; experiment: competitive ELISA: V-set domain (0 to 20 µg/ml) pre-mixed with #32A1 (2 µg/ml), then added to captured human Siglec-15-Fc
Method: In a 96-well maxi-sorp plate (manufactured by Nunc, Inc., model number: 442404), 100 μl of a goat anti-human Fc antibody (Jackson ImmunoResearch, Inc., model number: 109-005-098) (1.25 μg/ml) was added to each well and immobilized overnight at 4° C. After the 96-well maxi-sorp plate was washed twice with PBS, 100 μl of the soluble human Siglec-15-Fc (1 μg/ml) was added to each well and immobilized at room temperature for 1 hour. Thereafter, 300 μl of a 5% skim milk/PBS solution was added to each well, and blocking of the wells was performed at room temperature for 3 hours. In the meantime, 2 μg/ml of the rat anti-mouse Siglec-15 monoclonal antibody #32A1 was mixed with an equivalent amount of 0, 0.032, 0.16, 0.8, 4, or 20 μg/ml of the human Siglec-15 V-set domain, and a reaction was allowed to proceed at room temperature for 1.5 hours. After the 96-well maxi-sorp plate had been washed twice with PBS, 100 μl of the mixed solution of the rat anti-mouse Siglec-15 monoclonal antibody #32A1 and the human Siglec-15 V-set domain was added thereto, and a reaction was allowed to proceed at room temperature for 1 hour. […] Then, 100 μl of a reaction stopping solution was added thereto, and an absorbance at 405 nm was measured.

[2] = biological target: T2, human Siglec-15-Fc (human); experiment: ELISA, human Siglec-15-Fc immobilized at 5 µg/ml, antibody 1.28 to 20,000 ng/ml
T2 construct: Expressed in 293-F cells, purified on Protein A; also called soluble human Siglec-15-Fc; human Siglec-15-Fc protein
T2 sequence (chain, as listed by the source limits assumed): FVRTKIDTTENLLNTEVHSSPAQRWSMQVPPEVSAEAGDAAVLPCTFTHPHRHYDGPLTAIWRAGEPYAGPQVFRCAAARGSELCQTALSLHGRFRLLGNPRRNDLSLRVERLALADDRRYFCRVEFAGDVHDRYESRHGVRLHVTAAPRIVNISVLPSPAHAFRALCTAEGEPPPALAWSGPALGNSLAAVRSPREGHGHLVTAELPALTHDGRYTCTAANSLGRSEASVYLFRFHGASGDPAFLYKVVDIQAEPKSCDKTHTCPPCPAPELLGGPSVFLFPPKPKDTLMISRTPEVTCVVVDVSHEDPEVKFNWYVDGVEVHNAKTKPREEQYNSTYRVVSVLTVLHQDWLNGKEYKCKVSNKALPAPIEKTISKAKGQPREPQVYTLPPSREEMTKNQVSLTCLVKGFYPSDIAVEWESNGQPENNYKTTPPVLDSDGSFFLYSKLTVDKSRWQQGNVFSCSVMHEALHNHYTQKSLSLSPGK
Method: The property of the rat anti-mouse Siglec-15 monoclonal antibody binding to human Siglec-15 protein was evaluated by an ELISA method. The human Siglec-15-Fc protein (subjected to replacement with A-PBS) produced in b) of Example 12 was diluted to 5 μg/ml with 0.1 M sodium carbonate buffer (pH 9.5), and the resulting solution was added to a 96-well plate (manufactured by Nalge Nunc International, Inc., Cat. No. 430341) at 100 μl/well. After the plate had been left at room temperature for 1 hour, the solution was removed and a washing buffer (phosphate-buffered saline containing 0.05% Tween 20) was added at 300 μl/well and then removed. After this washing procedure had been performed one more time, phosphate-buffered saline containing 25% BlockAce (manufactured by Dainippon Sumitomo Pharma Co., Ltd.) was added at 200 μl/well, and the plate was left at room temperature for 1 hour, whereby blocking was performed. The liquid was removed, and the plate was washed twice with 300 μl/well of the washing buffer. […] After developing the color, an absorbance at 492 nm was measured using a microplate reader (manufactured by Nihon Molecular Devices Corporation).

[3] = biological target: T2, human Siglec-15-Fc; experiment: ELISA, human Siglec-15-Fc immobilized at 1 µg/ml, antibody 1 to 0.004 µg/ml, fluorescence read-out

binding result [1] | binding result [2] | binding result [3] | Binder
binds | binds | – | rat anti-mouse Siglec-15 monoclonal antibody #32A1 (antibody, rat IgG2a, V domains shown, Whole rat IgG purified from nude mouse ascites; Cloning primers were designed from the rat IgG2a heavy chain and kappa light chain constant regions; also called #32A1 antibody; rat #32A1 antibody) VH: EVQILETGGGLVKPGGSLRLSCATSGFNFNDYFMNWVRQAPEKGLEWVAQIRNKIYTYATFYAESLEGRVTISRDDSESSVYLQVSSLRAEDTAIYYCTRSLTGGDYFDYWGQGVMVTVSL VL: DIVLTQSPALAVSLGQRATISCRASQSVTISGYSFIHWYQQKPGQQPRLLIYRASNLASGIPARFSGSGSGTDFTLTINPVQADDIATYFCQQSRKSPWTFAGGTKLELRRA
– | – | binds | h#32A1-T2 (antibody, human IgG1, kappa, V domains shown, Human IgG1 / kappa constant regions; also called humanized antibody of rat anti-mouse Siglec-15 #32A1 T2; h#32A1-T2H / h#32A1-T2L) VH: EVQLVESGGGLVQPGGSLRLSCAASGFNFNDYFMNWVRQAPEKGLEWVAQIRNKIYTYATFYAESLEGRVTISRDNAKNSLYLQMSSLRAEDTAVYYCARSLTGGDYFDYWGQGTLVTVSS VL: DIVMTQSPDSLAVSLGERATISCRASQSVTISGYSFIHWYQQKPGQPPRLLIYRASNLASGVPARFSGSGSGTDFTLTISSLQAEDVAVYFCQQSRKSPWTFAGGTKVEIKR

More lines, now with the values behind:

Binder | binding result [1] | binding result [2] | binding result [3]
h#32A1-T1 (antibody, human IgG1, kappa, V domains shown, Human IgG1 / kappa constant regions; also called humanized antibody of rat anti-mouse Siglec-15 #32A1 T1; h#32A1-T1H / h#32A1-T1L) VH: EVQLVESGGGLVQPGGSLRLSCAASGFNFNDYFMNWVRQAPGKGLEWVAQIRNKIYTYATFYAESLEGRFTISRDNAKNSLYLQMNSLRAEDTAVYYCARSLTGGDYFDYWGQGTLVTVSS VL: DIVMTQSPDSLAVSLGERATINCRASQSVTISGYSFIHWYQQKPGQPPKLLIYRASNLASGVPARFSGSGSGTDFTLTISSLQAEDVAVYYCQQSRKSPWTFGGGTKVEIKR | – | – | binds
h#32A1-T6 (antibody, human IgG1, kappa, V domains shown, Human IgG1 / kappa constant regions; also called humanized antibody of rat anti-mouse Siglec-15 #32A1 T6; h#32A1-T6H / h#32A1-T6L) VH: EVQVVESGGGLVQPGGSLRLSCATSGFNFNDYFMNWVRQAPEKGLEWVAQIRNKIYTYATFYAESLEGRVTISRDNSKSTVYLQMSSLRAEDTAVYYCTRSLTGGDYFDYWGQGTLVTVSS VL: DIVLTQSPDSLAVSLGERATISCRASQSVTISGYSFIHWYQQKPGQPPRLLIYRASNLASGIPARFSGSGSGTDFTLTISSLQAEDVATYFCQQSRKSPWTFAGGTKVEIKR | – | – | binds
h#32A1-T5 (antibody, human IgG1, kappa, V domains shown, Human IgG1 / kappa constant regions; also called humanized antibody of rat anti-mouse Siglec-15 #32A1 T5; h#32A1-T5H / h#32A1-T5L) VH: EVQVVESGGGLVQPGGSLRLSCATSGFNFNDYFMNWVRQAPGKGLEWVAQIRNKIYTYATFYAESLEGRFTISRDNSKSTVYLQMNSLRAEDTAVYYCTRSLTGGDYFDYWGQGTLVTVSS VL: DIVLTQSPDSLAVSLGERATINCRASQSVTISGYSFIHWYQQKPGQPPKLLIYRASNLASGIPARFSGSGSGTDFTLTISSLQAEDVATYYCQQSRKSPWTFGQGTKVEIKR | – | – | binds
h#32A1-T3 (antibody, human IgG1, kappa, V domains shown, Human IgG1 / kappa constant regions; also called humanized antibody of rat anti-mouse Siglec-15 #32A1 T3; h#32A1-T3H / h#32A1-T3L) VH: EVQIVESGGGLVQPGGSLRLSCATSGFNFNDYFMNWVRQAPEKGLEWVAQIRNKIYTYATFYAESLEGRVTISRDDSESSVYLQMSSLRAEDTAVYYCTRSLTGGDYFDYWGQGTLVTVSS VL: DIVLTQSPDSLAVSLGERATISCRASQSVTISGYSFIHWYQQKPGQQPRLLIYRASNLASGIPARFSGSGSGTDFTLTISSLQAEDVATYFCQQSRKSPWTFAGGTKVEIKR | – | – | binds
